What was measured:
[1] = target: Gi/Go (endogenous G proteins of the CHO cells); test: cell-based or functional assay
[2] = target: Gi (endogenous G protein of the CHO cells); test: cell-based or functional assay

| Binder | high affinity dissociation constant KH of epinephrine (competition with [3H]yohimbine, no GTP) [1] [nM] | percentage of receptors in the high-affinity state (% RH) [1] [%] | inhibition of adenylyl cyclase (epinephrine) [2] [% inhibition] | inhibition of adenylyl cyclase [2] [% inhibition] | stimulation of MAP kinase (fold increase over basal) [2] |
| --- | --- | --- | --- | --- | --- |
| polymorphic Lys251 human alpha-2A adrenergic receptor, P08913 16-465 (receptor) MGSLQPDAGNASWNGTEAPGGGARATPYSLQVTLTLVCLAGLLMLLTVFGNVLVIIAVFTSRALKAPQNLFLVSLASADILVATLVIPFSLANEVMGYWYFGKAWCEIYLALDVLFCTSSIVHLCAISLDRYWSITQAIEYNLKRTPRRIKAIIITVWVISAVISFPPLISIEKKGGGGGPQPAEPRCEINDQKWYVISSCIGSFFAPCLIMILVYVRIYQIAKRRTRVPPSRRGPDAVAAPPGGTERRPKGLGPERSAGPGGAEAEPLPTQLNGAPGEPAPAGPRDTDALDLEESSSSDHAERPPGPRRPERGPRGKGKARASQVKPGDSLPRRGPGATGIGTPAAGPGEERVGAAKASRWRGRQNREKRFTFVLAVVIGVFVVCWFPFFFTYTLTAVGCSVPRTLFKFFFWFGYCNSSLNPVIYTIFNHDFRRAFKKILCRGDRKRIV |  |  |  | 60 | 57 |
| wild-type Asn251 human alpha-2A adrenergic receptor, P08913 16-465 (receptor) MGSLQPDAGNASWNGTEAPGGGARATPYSLQVTLTLVCLAGLLMLLTVFGNVLVIIAVFTSRALKAPQNLFLVSLASADILVATLVIPFSLANEVMGYWYFGKAWCEIYLALDVLFCTSSIVHLCAISLDRYWSITQAIEYNLKRTPRRIKAIIITVWVISAVISFPPLISIEKKGGGGGPQPAEPRCEINDQKWYVISSCIGSFFAPCLIMILVYVRIYQIAKRRTRVPPSRRGPDAVAAPPGGTERRPNGLGPERSAGPGGAEAEPLPTQLNGAPGEPAPAGPRDTDALDLEESSSSDHAERPPGPRRPERGPRGKGKARASQVKPGDSLPRRGPGATGIGTPAAGPGEERVGAAKASRWRGRQNREKRFTFVLAVVIGVFVVCWFPFFFTYTLTAVGCSVPRTLFKFFFWFGYCNSSLNPVIYTIFNHDFRRAFKKILCRGDRKRIV |  |  |  | 46 | 15 |

Now from value to binder:

| high affinity dissociation constant KH of epinephrine (competition with [3H]yohimbine, no GTP) [1] [nM] | percentage of receptors in the high-affinity state (% RH) [1] [%] | inhibition of adenylyl cyclase (epinephrine) [2] [% inhibition] | inhibition of adenylyl cyclase [2] [% inhibition] | stimulation of MAP kinase (fold increase over basal) [2] | Binder |
| --- | --- | --- | --- | --- | --- |
| 3.7 | 42 | 73 |  |  | wild-type human alpha-2C adrenergic receptor, P18825 1-462 (receptor) MASPALAAALAVAAAAGPNASGAGERGSGGVANASGASWGPPRGQYSAGAVAGLAAVVGFLIVFTVVGNVLVVIAVLTSRALRAPQNLFLVSLASADILVATLVMPFSLANELMAYWYFGQVWCGVYLALDVLFCTSSIVHLCAISLDRYWSVTQAVEYNLKRTPRRVKATIVAVWLISAVISFPPLVSLYRQPDGAAYPQCGLNDETWYILSSCIGSFFAPCLIMGLVYARIYRVAKRRTRTLSEKRAPVGPDGASPTTENGLGAAAGAGENGHCAPPPADVEPDESSAAAERRRRRGALRRGGRRRAGAEGGAGGADGQGAGPGAAESGALTASRSPGPGGRLSRASSRSVEFFLSRRRRARSSVCRRKVAQAREKRFTFVLAVVMGVFVLCWFPFFFIYSLYGICREACQVPGPLFKFFFWIGYCNSSLNPVIYTVFNQDFRPSFKHILFRRRRRGFRQ |
| 7.3 | 31 | 10 |  |  | Del322-325 human alpha-2C adrenergic receptor, P18825 1-462 (receptor) MASPALAAALAVAAAAGPNASGAGERGSGGVANASGASWGPPRGQYSAGAVAGLAAVVGFLIVFTVVGNVLVVIAVLTSRALRAPQNLFLVSLASADILVATLVMPFSLANELMAYWYFGQVWCGVYLALDVLFCTSSIVHLCAISLDRYWSVTQAVEYNLKRTPRRVKATIVAVWLISAVISFPPLVSLYRQPDGAAYPQCGLNDETWYILSSCIGSFFAPCLIMGLVYARIYRVAKRRTRTLSEKRAPVGPDGASPTTENGLGAAAGAGENGHCAPPPADVEPDESSAAAERRRRRGALRRGGRRRAGAEGGAGGADGQGAAESGALTASRSPGPGGRLSRASSRSVEFFLSRRRRARSSVCRRKVAQAREKRFTFVLAVVMGVFVLCWFPFFFIYSLYGICREACQVPGPLFKFFFWIGYCNSSLNPVIYTVFNQDFRPSFKHILFRRRRRGFRQ |

From patent publication US20060073508A1
